Test results: patent publication US20230012273A1 (Boehringer Ingelheim, published 2023)
Blank lines part the entries; values can stand above or below the binder they belong to.

Experiments:
[1] = target: T1, full-length human SIRPβL (NP_001129316.1) on cells (human, UniProt Q5TFQ8 30-398); test: flow cytometry, U937 SIRPα-KO cells expressing full-length human SIRPβL
T1 construct: one molecule for U937 SIRPα-KO transfectants (NP_001129316.1) and Expi-CHO transfectants (Q5TFQ8); also called SIRPβ1v3; βL WT
T1 sequence (Q5TFQ8 30-398): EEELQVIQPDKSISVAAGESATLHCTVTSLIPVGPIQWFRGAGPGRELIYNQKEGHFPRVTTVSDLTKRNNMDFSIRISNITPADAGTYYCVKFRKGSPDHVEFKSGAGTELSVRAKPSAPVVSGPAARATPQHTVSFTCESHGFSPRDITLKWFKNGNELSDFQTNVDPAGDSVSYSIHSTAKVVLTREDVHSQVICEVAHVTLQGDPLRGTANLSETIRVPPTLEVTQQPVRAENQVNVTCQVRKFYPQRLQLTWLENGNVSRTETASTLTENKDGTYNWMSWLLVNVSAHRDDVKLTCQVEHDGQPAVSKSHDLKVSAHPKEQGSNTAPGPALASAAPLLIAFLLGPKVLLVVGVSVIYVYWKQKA
Description: (§1) Antibody binding to cells expressing full-length human SIRPβ1 (NP_006056.2) and SIRPβL (NP_001129316.1) is evaluated by flow cytometry. SIRPβ1- or SIRPβL-expressing U937^{SIRPα KO} cells are blocked with donkey IgG and incubated on ice with increasing concentrations of antibodies for 60 minutes, washed and stained with AF647-conjugated donkey F(ab′)₂ anti-human IgG secondary reagent. Cells are washed, fixed, and analyzed by flow cytometry. Median fluorescent intensity is determined and used as a measure of antibody binding.

[2] = target: T2, human SIRPβ1 extracellular domain + His-tag (NP_006056.2) (human, UniProt O00241 30-371); test: SPR, Ab captured, ECD-His analyte
T2 construct: also called hSIRPβ1; HuSIRPβ1
T2 sequence (O00241 other isoform, or with tags, fused parts or gaps): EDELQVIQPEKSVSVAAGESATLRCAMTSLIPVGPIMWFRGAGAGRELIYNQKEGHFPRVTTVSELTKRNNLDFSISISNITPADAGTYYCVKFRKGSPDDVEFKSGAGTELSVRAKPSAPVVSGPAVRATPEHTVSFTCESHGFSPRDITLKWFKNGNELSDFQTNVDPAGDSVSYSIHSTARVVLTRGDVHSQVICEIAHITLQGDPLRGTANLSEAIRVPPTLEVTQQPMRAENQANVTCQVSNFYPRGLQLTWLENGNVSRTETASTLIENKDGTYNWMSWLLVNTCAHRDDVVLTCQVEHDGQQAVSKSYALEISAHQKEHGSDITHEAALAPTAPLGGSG
How it was run: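 Steps: chip deactivated with 1M ethanolamine HCl for 420 sec at 10 μl/min; anti-SIRPα antibody captured; two-fold serial dilutions of His-tagged SIRP extracellular domain injected 300 sec at 30 μl/min; dissociation monitored 600 sec. All in 1×HBS-EP+ running buffer.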

[3] = target: T3, full-length human SIRPγ (NP_061026.2) on cells (human, UniProt Q9P1W8 29-387); test: flow cytometry, primary human CD3+ T cells; endogenous SIRPγ on primary human CD3+ T cells
T3 construct: on CHO and Expi-CHO cells; endogenous on primary human CD3+ T cells; also called γ WT
Description: Antibody binding to primary human T cells expressing endogenous SIRPγ is evaluated by flow cytometry. Human peripheral blood mononuclear cells (PBMCs) are blocked with donkey IgG and incubated on ice with increasing concentrations of antibody for 60 minutes, washed and stained with AF647-conjugated donkey F(ab′)₂ anti-human IgG secondary reagent. […] Cells are washed, fixed, and analyzed by flow cytometry. Median fluorescent intensity of CD3+ gated population is determined and used as a measure of antibody binding.
T3 sequence (Q9P1W8 29-387): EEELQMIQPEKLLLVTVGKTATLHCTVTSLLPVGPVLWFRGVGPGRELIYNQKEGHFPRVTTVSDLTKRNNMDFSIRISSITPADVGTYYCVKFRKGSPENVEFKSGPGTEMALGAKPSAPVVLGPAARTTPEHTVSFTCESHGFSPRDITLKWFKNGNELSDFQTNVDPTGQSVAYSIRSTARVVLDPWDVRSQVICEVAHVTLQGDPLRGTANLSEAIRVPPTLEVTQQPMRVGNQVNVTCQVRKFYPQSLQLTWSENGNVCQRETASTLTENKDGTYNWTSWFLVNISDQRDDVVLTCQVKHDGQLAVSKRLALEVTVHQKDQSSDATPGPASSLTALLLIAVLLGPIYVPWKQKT

[4] = target: T4, full-length human SIRPγ (NP_061026.2) on cells (human, UniProt Q9P1W8 29-387); test: flow cytometry, CHO cells; CHO cells expressing hSIRPγ; n = 1
T4 construct: also called CHO-hSIRPγ; γ WT
Description: as §1, with “expressing” for “expressing full-length”, “SIRPγ(NP_061026.2)” for “SIRPβ1 (NP_006056.2) and SIRPβL (NP_001129316.1)”, “SIRPγ-expressing CHO” for “SIRPβ1- or SIRPβL-expressing U937^{SIRPα KO}”, “antibody” for “antibodies”
T4 sequence (Q9P1W8 29-387): as above

[5] = target: T5, recombinant human SIRPγ extracellular domain (ECD)/His protein (NP_061026.2) (human, UniProt Q9P1W8 29-360); test: ELISA, coated SIRPγ ECD/His
T5 construct: coated on ELISA plates; also called recombinant hSIRPγ; not shown: His-tag
T5 sequence (Q9P1W8 29-360): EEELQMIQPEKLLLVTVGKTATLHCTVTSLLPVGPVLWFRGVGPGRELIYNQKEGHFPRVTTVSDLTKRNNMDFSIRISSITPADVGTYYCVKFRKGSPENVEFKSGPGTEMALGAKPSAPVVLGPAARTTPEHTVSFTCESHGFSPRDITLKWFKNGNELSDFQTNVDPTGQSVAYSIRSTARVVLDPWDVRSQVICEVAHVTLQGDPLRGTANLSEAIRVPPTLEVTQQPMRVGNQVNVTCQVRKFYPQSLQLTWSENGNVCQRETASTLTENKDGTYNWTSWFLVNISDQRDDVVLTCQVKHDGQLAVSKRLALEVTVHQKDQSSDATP

- binding result [1]: no binding (tested: about 200 nM)
B1: Antibody A (antibody, human IgG1, kappa, L234A L235A)
heavy: not shown
light: DIQMTQSPSSLSASVGDRVTITCRASQDINNYLAWFQQKPGKAPKSLIYTASSLHSGVPSKFSGSGSGTDFTLTISSLQPEDFATYYCQQYVSYPYTFGQGTKLEIKRTVAAPSVFIFPPSDEQLKSGTASVVCLLNNFYPREAKVQWKVDNALQSGNSQESVTEQDSKDSTYSLSSTLTLSKADYEKHKVYACEVTHQGLSSPVTKSFNRGEC

- Kd [2]: 78.2 nM
- binding result [3]: no binding
B2: Antibody A (antibody, human IgG1, kappa, L234A L235A)
heavy: not shown
light: DIQMTQSPSSLSASVGDRVTITCRASQDINNYLAWFQQKPGKAPKSLIYTASSLHSGVPSKFSGSGSGTDFTLTISSLQPEDFATYYCQQYVSYPYTFGQGTKLEIKRTVAAPSVFIFPPSDEQLKSGTASVVCLLNNFYPREAKVQWKVDNALQSGNSQESVTEQDSKDSTYSLSSTLTLSKADYEKHKVYACEVTHQGLSSPVTKSFNRGEC

- EC50 [4]: 11.8 nM
B3: Antibody B (antibody, human IgG1, kappa, L234A L235A, V domains shown)
VH: QVQLVQSGAEVKKPGASVKVSCKASGYTFTGNYMHWVRQAPGQGLEWMGWINPNSGGTNYAQKFQGRVTMTRDTSISTAYMELSRLRSDDTAVYYCVSGSGWYENYYYYGMDVWGQGTTVTVSS
VL: DIQMTQSPSSVSASVGDRVTITCRASQGISSWLAWYQQKPGKAPKLLIYAESSLQSGVPSRFSGSGSGTDFTLTISSLQPEDFATYYCQQANSFPLTFGGGTKVEIKR

- EC50 [5]: 0.1 nM
B4: Anti-SIRPα antibody KWAR23 (antibody, V domains shown)
VH: EVQLQQSGAELVKPGASVKLSCTASGFNIKDYYIHWVQQRTEQGLEWIGRIDPEDGETKYAPKFQDKATITADTSSNTAYLHLSSLTSEDTAVYYCARWGAYWGQGTLVTVSS
VL: QIVLTQSPAIMSASPGEKVTLTCSASSSVSSSYLYWYQQKPGSSPKLWIYSTSNLASGVPARFSGSGSGTSYSLTISSMEAEDAASYFCHQWSSYPRTFGAGTKLELK
